# Experimental data taken from US20240084003A1 (SIMCERE ZAIMING PHARMACEUTICAL, published 2024).
# T1: human CD22-ECD-His protein (human, UniProt P20273 20-687)
# T1 construct: Recombinant, from HEK293E cells; also called hCD22-ECD-His; human CD22-His protein; not shown: His tag
# T1 sequence: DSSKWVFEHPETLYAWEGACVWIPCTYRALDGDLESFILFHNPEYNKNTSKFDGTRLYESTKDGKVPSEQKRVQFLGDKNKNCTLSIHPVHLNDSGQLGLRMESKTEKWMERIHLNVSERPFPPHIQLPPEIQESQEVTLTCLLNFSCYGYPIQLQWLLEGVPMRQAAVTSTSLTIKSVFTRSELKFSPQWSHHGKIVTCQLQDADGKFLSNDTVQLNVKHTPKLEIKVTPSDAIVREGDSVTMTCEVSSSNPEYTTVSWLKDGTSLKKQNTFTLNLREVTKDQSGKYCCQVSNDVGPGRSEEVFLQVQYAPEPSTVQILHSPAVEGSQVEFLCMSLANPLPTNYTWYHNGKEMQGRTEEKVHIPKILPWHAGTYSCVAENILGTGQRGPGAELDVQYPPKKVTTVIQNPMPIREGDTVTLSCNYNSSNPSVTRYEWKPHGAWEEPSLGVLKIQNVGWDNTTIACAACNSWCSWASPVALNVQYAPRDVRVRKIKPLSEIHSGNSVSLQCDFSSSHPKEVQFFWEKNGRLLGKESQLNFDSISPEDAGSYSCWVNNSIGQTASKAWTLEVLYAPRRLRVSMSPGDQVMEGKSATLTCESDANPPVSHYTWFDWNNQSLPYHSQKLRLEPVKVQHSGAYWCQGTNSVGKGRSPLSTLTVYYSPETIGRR
# T2: rhesus monkey CD22-ECD-His protein (rhesus monkey, UniProt H9G1X2 18-686)
# T2 construct: extracellular domain; also called monkey CD22 protein
# T2 sequence: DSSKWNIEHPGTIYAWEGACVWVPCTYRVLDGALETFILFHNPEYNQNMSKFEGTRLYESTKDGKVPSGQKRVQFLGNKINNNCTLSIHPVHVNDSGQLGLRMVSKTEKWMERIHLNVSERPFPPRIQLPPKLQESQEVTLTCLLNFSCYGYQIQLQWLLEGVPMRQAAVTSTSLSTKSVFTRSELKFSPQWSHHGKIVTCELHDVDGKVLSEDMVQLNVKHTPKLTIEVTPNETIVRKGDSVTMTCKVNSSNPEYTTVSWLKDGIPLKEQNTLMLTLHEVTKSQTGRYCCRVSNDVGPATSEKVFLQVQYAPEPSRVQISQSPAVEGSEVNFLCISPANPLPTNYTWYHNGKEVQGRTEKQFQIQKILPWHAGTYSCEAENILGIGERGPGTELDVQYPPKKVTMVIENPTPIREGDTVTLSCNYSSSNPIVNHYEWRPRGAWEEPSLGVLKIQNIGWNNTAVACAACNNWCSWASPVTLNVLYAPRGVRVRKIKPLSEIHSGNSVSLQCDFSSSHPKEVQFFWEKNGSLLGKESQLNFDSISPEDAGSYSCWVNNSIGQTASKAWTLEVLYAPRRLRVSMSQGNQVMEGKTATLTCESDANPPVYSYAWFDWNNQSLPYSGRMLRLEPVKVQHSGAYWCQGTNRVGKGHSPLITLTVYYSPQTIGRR
# T3: human CD22 domain1-4-His (human, UniProt P20273 20-425)
# T3 construct: also called hCD22 domain1-4-His; not shown: His tag
# T3 sequence: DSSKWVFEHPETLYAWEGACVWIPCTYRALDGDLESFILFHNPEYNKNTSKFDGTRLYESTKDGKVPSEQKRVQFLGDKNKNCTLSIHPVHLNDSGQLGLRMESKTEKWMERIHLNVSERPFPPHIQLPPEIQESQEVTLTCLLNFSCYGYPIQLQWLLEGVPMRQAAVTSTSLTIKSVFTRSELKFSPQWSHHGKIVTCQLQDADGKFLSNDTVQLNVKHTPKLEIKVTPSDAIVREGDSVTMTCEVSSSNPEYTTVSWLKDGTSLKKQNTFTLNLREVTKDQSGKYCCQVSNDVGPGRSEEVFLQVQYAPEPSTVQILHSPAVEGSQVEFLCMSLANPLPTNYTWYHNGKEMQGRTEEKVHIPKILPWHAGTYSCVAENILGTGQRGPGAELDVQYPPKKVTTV
# Tests used:
# [1] = molecular target: T1, human CD22-ECD-His protein; test: SPR (Biacore), antibody captured on Protein A chip, CD22-ECD-His in solution
# Procedure, shortened: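 Antibody captured on Protein A chip, then human CD22-ECD-His injected for 240 s at 30 μL/min, 5 concentrations from 200 nM (1:1 dilution), dissociation up to 600 s, in HBS-EP+ at 25° C. Responses double-referenced; apparent KD and kinetic constants fitted to a Langmuir 1:1 model.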
# [2] = molecular target: T2, rhesus monkey CD22-ECD-His protein; test: SPR (Biacore), antibody captured on Protein A chip, rhesus CD22 in solution
# human CD22 domain1-4-His = molecular target: T3, human CD22 domain1-4-His; test: ELISA, plate coated with human CD22 domain1-4-His
Binder,Kd [1] [nM],koff [1] [s⁻¹],kon [1] [M⁻¹ s⁻¹],Kd [2] [nM],koff [2] [s⁻¹],kon [2] [M⁻¹ s⁻¹],binding result (human CD22 domain1-4-His)
"F1.192.1 (antibody, human IgG1, kappa, V domains shown, Chimeric IgG1 kappa) VH: AVQLQQSGVELVRPGASVKLSCTGSDFNIKEDYIHWVKQRPEQGLEWIGWIDPENGDTEYASKFQGKATITADTSSNTAYLQLSSLTSEDTAVYYCATYGSLDYWGQGTTLTVSS VL: DIKMTQSPSSMYAFLGERVTITCKASQGINSFLTWFQQKPGKSPKTLIYRANRLVDGVPSRFSGSGSGQDYSLTISSLEYEDVGIYYCLQYDEFPRTFGGGTKLEIKR",1.08,0.000244,225000,23.1,0.0016,69200,no binding
"F2.151.13 (antibody, human IgG1, lambda, V domains shown, Chimeric IgG1 lambda) VH: QVHLQQPGTELMKPGASVKLSCKATGYTFRDYWLEWVKQRPGHGLEWIGEILPGSGNAYYNEKFKGKATFTADTSSNTAYMQLSSLTTEDSAIYYCARVYSNWYFDAWGKGTTVTVSS VL: QAVVTQESALTTSPGETVTLTCRSSTGAVTTSNYANWVQEKPDHLFTGLIGGTNNQAPGVPARFSGSLIGDKAALTISGAQTEDEAIYFCALWFSNHWVFGGGTKLTVLG",22.7,0.000533,23500,27.5,0.000528,19200,no binding
"F1.200.11 (antibody, human IgG1, kappa, V domains shown, Chimeric IgG1 kappa) VH: QNQLVQSGPELKKPGETVKISCKASGYTFTTAGMQWVQKMPGKGFKWIGWINTLSGEPKYAEDFKGRFAFSLETSATTAYLQISNLKNEDTATYFCARAYYSNLYWYFDVWGTGTTVTVSS VL: DIVMTQSQKFMSTTVGDRVTITCKASQNVVTAVAWYQQKPGQSPKVLIYSASNRYSGVPDRFTGSGSGTDFTLTISNMHSEDLANYFCHQYSSYPFTFGSGTKLEIKR",102,0.00102,9980,44.2,0.000596,13500,no binding
"F1.105.11 (antibody, human IgG1, kappa, V domains shown, Chimeric IgG1 kappa) VH: EVQLQQSGPVLVKPGASVKMSCKASGYTFSDYFMNWVKQSHGKSLEWIGIINSYSGGTSYNQKFKGKATLTVDKSSSTAYMELNSLTSEDSAVYYCARWMDYWGQGTSVTVSS VL: DVQITQSPSYLAASPGETITINCRTSESISKHLAWYQEKPGKTNKLLIYSGSTLQSGIPSRFSGSGSGTDFTLTISSLEPEDFAMYYCQQHNEYPWTFGGGTKLEIKR",0.514,0.000154,299000,17.3,0.000448,25900,no binding
